Assay results: patent EP2397495A1 (SANOFI, dated 2011)
Positions count from the first letter of the chain named. Where “and” joins values, the source holds several entries; their conditions need not be identical. Equal values may be shown once.

T1: human GPVI on the platelet surface (human, UniProt Q9HCN6 21-339)
T1 sequence (looked up): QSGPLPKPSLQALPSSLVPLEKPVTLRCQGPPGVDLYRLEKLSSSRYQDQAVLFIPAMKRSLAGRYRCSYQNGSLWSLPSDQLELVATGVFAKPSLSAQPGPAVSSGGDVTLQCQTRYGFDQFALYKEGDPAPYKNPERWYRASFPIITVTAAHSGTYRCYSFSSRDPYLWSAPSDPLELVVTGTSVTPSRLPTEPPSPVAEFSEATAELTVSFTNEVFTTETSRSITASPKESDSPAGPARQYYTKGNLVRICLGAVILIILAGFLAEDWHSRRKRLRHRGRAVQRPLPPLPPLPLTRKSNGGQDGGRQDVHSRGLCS

B1: humanized anti-GPVI Fab VL1 with VH2 (Fab, V domains shown)
VH: QVQLQESGPGLVAPSQSLSITCTVSGFSLTGYGVNWVRQPPSRGLEWLGMIWGDGSTDYQSTLKSRLSISKDNSKSQVFLKMNSLTTDDTARYYCARDLPMDYWGQGTSVTVSS
VL: DIQMTQSPSSLSASVGGRVTITCKASQDINKYIAWYQHKPGKGPSLLIHYTSTLQPGVPSRFSGSGSGRDYSFSISNLQPEDIATYYCLQYANLLTFGGGTKLEIKR
B2: humanized anti-GPVI Fab VL1 with VH5 (Fab, V domains shown)
VH: B1 VH with Y103E
VL: B1 VL
B3: humanized anti-GPVI Fab VL1 with VH3 (Fab, V domains shown)
VH: B1 VH with Q1E, Q5L, Q16G, S42G, R43K, T86R, Q106L
VL: B1 VL
B4: humanized anti-GPVI Fab VL3 with VH4 (Fab, V domains shown)
VH: B1 VH with G31Y
VL: B1 VL with N93L
B5: humanized anti-GPVI Fab VL3 with VH2 (Fab, V domains shown)
VH: B1 VH
VL: B1 VL with N93L
B6: humanized anti-GPVI Fab VL1 with VH4 (Fab, V domains shown)
VH: B1 VH with G31Y
VL: B1 VL
B7: humanized anti-GPVI Fab VL2 with VH2 (Fab, V domains shown)
VH: B1 VH
VL: B1 VL with N93H
B8: humanized anti-GPVI Fab VL1 with VH1 (Fab, V domains shown)
VH: B1 VH with N73T
VL: B1 VL

Target: T1, human GPVI on the platelet surface
Assay: cell-based or functional assay

| IC50, inhibition of collagen induced platelet aggregation (human platelet rich plasma) | Binder |
| --- | --- |
| 2.3 µg/mL and 2 µg/mL and 1.1 µg/mL | B1 |
| 1.9 µg/mL and 2.3 µg/mL and 1.2 µg/mL | B2 |
| 1.5 µg/mL and 1.7 µg/mL | B3 |
| 1 µg/mL and 2.3 µg/mL and 2 µg/mL | B4 |
| 1.9 µg/mL and 0.9 µg/mL and 2.1 µg/mL | B5 |
| 1.6 µg/mL and 1.8 µg/mL and 1.2 µg/mL | B6 |
| 1.4 µg/mL and 2.4 µg/mL and 2.3 µg/mL | B7 |
| 1.5 µg/mL and 2.3 µg/mL | B8 |
